From paper PMC5797668

Target: HA-M2R-RLuc8 (M2 muscarinic receptor) (UniProt P08172)
Assay: FRET or BRET

UniProt P08172, sequence (P08172 whole entry): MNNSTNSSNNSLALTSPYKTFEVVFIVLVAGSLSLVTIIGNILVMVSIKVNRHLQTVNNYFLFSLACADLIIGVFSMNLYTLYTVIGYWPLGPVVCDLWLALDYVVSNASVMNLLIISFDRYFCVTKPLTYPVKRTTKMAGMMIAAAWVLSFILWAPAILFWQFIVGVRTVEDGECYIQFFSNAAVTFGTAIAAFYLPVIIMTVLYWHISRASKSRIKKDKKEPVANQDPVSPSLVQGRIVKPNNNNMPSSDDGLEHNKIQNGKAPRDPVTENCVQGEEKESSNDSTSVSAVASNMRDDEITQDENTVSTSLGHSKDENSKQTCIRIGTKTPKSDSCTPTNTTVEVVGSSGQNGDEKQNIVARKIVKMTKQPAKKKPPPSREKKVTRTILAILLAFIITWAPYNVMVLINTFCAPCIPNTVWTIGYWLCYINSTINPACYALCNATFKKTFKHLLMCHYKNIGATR

“Venus-arrestin-3-Lys139Ile (on the Ala87Val base mutant) (natural protein)” was tested, and the fold increase of basal net BRET (against the A87V base mutant) was greater than 3 fold.
